The values below come from paper PMC3257569 (The Journal of Cell Biology, 2011).

Data set [1] deals with the molecule itself. The experiment in a line: velocity sedimentation in a sucrose gradient.
The data set “negative staining and EM” deals with the molecule itself. Description: negative staining and EM.

B1: recombinant Pil1 (natural protein, S. cerevisiae, UniProt P53252 1-339, looked up)
chain: MHRTYSLRNSRAPTASQLQNPPPPPSTTKGRFFGKGGLAYSFRRSAAGAFGPELSRKLSQLVKIEKNVLRSMELTANERRDAAKQLSIWGLENDDDVSDITDKLGVLIYEVSELDDQFIDRYDQYRLTLKSIRDIEGSVQPSRDRKDKITDKIAYLKYKDPQSPKIEVLEQELVRAEAESLVAEAQLSNITRSKLRAAFNYQFDSIIEHSEKIALIAGYGKALLELLDDSPVTPGETRPAYDGYEASKQIIIDAESALNEWTLDSAQVKPTLSFKQDYEDFEPEEGEEEEEEDGQGRWSEDEQEDGQIEEPEQEEEGAVEEHEQVGHQQSESLPQQTTA
For the protein B1, the binding result in data set [1] is listed as “binds”.

B2: recombinant pil1(4D) (natural protein, S. cerevisiae, UniProt P53252 1-339, looked up)
chain: MHRTYSLRNSRAPTASQLQNPPPPPSTTKGRFFGKGGLAYSFRRDAAGAFGPELSRKLDQLVKIEKNVLRSMELTANERRDAAKQLSIWGLENDDDVSDITDKLGVLIYEVSELDDQFIDRYDQYRLTLKSIRDIEGSVQPSRDRKDKITDKIAYLKYKDPQSPKIEVLEQELVRAEAESLVAEAQLSNITRSKLRAAFNYQFDSIIEHSEKIALIAGYGKALLELLDDDPVDPGETRPAYDGYEASKQIIIDAESALNEWTLDSAQVKPTLSFKQDYEDFEPEEGEEEEEEDGQGRWSEDEQEDGQIEEPEQEEEGAVEEHEQVGHQQSESLPQQTTA
Turning to B2, in “negative staining and EM”, the binding result is listed as “binds”.

B3: lsp1ΔN (domain or fragment, S. cerevisiae, UniProt Q12230 36-341, looked up)
chain: ASIASSFRKNAAGNFGPELARKLSQLVKTEKGVLRAMEVVASERREAAKQLSLWGADNDDDVSDVTDKLGVLIYELGELQDQFIDKYDQYRVTLKSIRNIEASVQPSRDRKEKITDEIAHLKYKDPQSTKIPVLEQELVRAEAESLVAEAQLSNITREKLKAAYSYMFDSLRELSEKFALIAGYGKALLELLDDSPVTPGEARPAYDGYEASRQIIMDAESALESWTLDMAAVKPTLSFHQTVDDVYEDEDGEEEEEPEIQNGDIPGQVVEEEEVEWTTEVPVDDEAHEADHHVSQNGHTSGSENI
Turning to B3, in “negative staining and EM”, the binding result is given as “binds”.

B4: recombinant Lsp1 (natural protein, S. cerevisiae, UniProt Q12230 1-341, looked up)
chain: MHRTYSLRNQRAPTAAELQAPPPPPSSTKSKFFGKASIASSFRKNAAGNFGPELARKLSQLVKTEKGVLRAMEVVASERREAAKQLSLWGADNDDDVSDVTDKLGVLIYELGELQDQFIDKYDQYRVTLKSIRNIEASVQPSRDRKEKITDEIAHLKYKDPQSTKIPVLEQELVRAEAESLVAEAQLSNITREKLKAAYSYMFDSLRELSEKFALIAGYGKALLELLDDSPVTPGEARPAYDGYEASRQIIMDAESALESWTLDMAAVKPTLSFHQTVDDVYEDEDGEEEEEPEIQNGDIPGQVVEEEEVEWTTEVPVDDEAHEADHHVSQNGHTSGSENI
In the case of B4, the binding result in data set [1] is on record as “binds”.

B5: pil1ΔN (domain or fragment, S. cerevisiae, UniProt P53252 36-339, looked up)
chain: GGLAYSFRRSAAGAFGPELSRKLSQLVKIEKNVLRSMELTANERRDAAKQLSIWGLENDDDVSDITDKLGVLIYEVSELDDQFIDRYDQYRLTLKSIRDIEGSVQPSRDRKDKITDKIAYLKYKDPQSPKIEVLEQELVRAEAESLVAEAQLSNITRSKLRAAFNYQFDSIIEHSEKIALIAGYGKALLELLDDSPVTPGETRPAYDGYEASKQIIIDAESALNEWTLDSAQVKPTLSFKQDYEDFEPEEGEEEEEEDGQGRWSEDEQEDGQIEEPEQEEEGAVEEHEQVGHQQSESLPQQTTA
With B5, the binding result in “negative staining and EM” is on record as “binds”.
